Experiment: soluble on expression in E. coli; label from the status in PepcDB or PDB records

Row | Sequence | soluble on expression in E. coli
1 | MSQDLQKEVASRKTFAIISHPDAGKTTITEQLLLFGGVIRSAGTVKGKKSGKFATSDWMEIEKQRGISVTSSVMQFDYNGSRINILDTPGHSDFSEDTYRTLMAVDSAVMVIDAAKGIEAQTLKLFKVCRMRGIPIFTFINKMDRQGKMPLELLAELEEVLGIESYPMNWPIGMGKELAGLYDRYHRVIEQYRSEEDERFLPLGEDGDLKEAHAIQKSLYYDQALEEIMLLDEAGNDFSRERIIAGEQTPVFFGSALTNFGVETFLRTFVDFAPAPSSHESNEGVIEADNPKFSGFIFKIQANMNPAHRDRIAFIRICSGEFERGMNVTLTRTGKSLKLANSTQFMADDRETVNRAVAGDIIGLYDTGNYQIGDTITNGSKKLEFEKLPQFTPELFMRVYAKNVMKQKHFHKGVEQLVQEGAIQLFKTWRTEEYIIGAVGQLQFEVFEHRMRGEYNSEIRMEPIGKKIARWVKEEDADEKLSTARSMLVKDRFDQPLFLFENEFAINWFNDKNPDIELTSLL | not soluble
2 | MTENTLDPAADLLERLGDKRFRTILADPPWQFQNRTGKMAPEHKRLNRYGTMSLEAIAGLPVERLTADTAHLYLWVPNALLLEGLKVMEAWGFTYKTNLVWHKIRKDGGPDGRGVGFYFRNVTELVLFGVRGKNARTLAAGRRQVNFLATRKREHSRKPDEMYGIIESCSPGPYLELFARGARDRWSVWGNEADENYYPRWNTYANHSQAEICPFEAAALEHHHHHH | soluble
3 | MPDHGPAFTVKIAETEAELHAAQRLRYDVFVRELGGSGALVDHQAGLERDRFDPFFDHMLCINNRSGQVVGVYRLLRDEQAQSAGQFYSEDEYDLGVLKRSGRRLLELGRSCVHPDYRGGMAMYHLWNGLADYVEQHGIEVLFGVASFHGTDVEALAQPLSMLYHNHLAPEDLRVRTQPAHYVDMNRITPEALDRRRAMLEVPSLIKAYLRLGGFVGDGAYIDHAFNTTDVCLILDTARMNERQRRIYGGG | not soluble
4 | MAHHHHHHMWAKYSSSAVEEASKQAKSFATYPSSTPDMSGDEKEAFHETNSRDAFTVALLKHVARNLGVQYMGDRVETSDSIVMDKLGRIKAEIRSRERLLGVENMGLIPLFIEAGDSSLTCEDSLIYYKKALDIVEANKDIKRDSNMMNDVGVSSFADLGSRFFRYGQYQVAERLFTMAAAISRDKVTGVAEEISFSTAQCGSQKSLQRLKGHLWDWKKAAEAANEDLSTLLSDATRNTHRFREMRDACSQTDLAEHRVAMPASQFIGTKREMKGLKGTRNGEELKRLVEYVFDPMSVEDGFTRQLLPKGSRNTTRLLSEHFTGSNPCLALRESIDCITSRIGAKADSINSSGGALRRELQTR | not soluble
5 | MGSDKIHHHHHHMEPEILFRKIDDLGEGPTYDERRKRVYWVDIRGKKFHYLSLENSEMKTFQSIGMISSIVPTDRDLMAATVDHGLYLIDDAGKHTLLTEVEKDQKSTRFNDGKADPFGNYVAGTMDLEEKRPIGSLYVLTGKTIRRILENLTISNGIAWNTKKKVFYHIDTPKRRVDAYSYDGKMNIERLGTAVDFRNEVGNPDGMTIDADGNLWVAHWGGNRITIHDPERQKKIDEIIFPAQNITSCVFAGNGLRDLYVSSASNGNPDDMGGSLFVVHTDYAGSKTFTFSVP | not soluble
6 | MPKSVKVIAVTPEEREAVMSIDFGGAYDFTSPGFNLFEVREKYSEPMDAAAGVVYNLLWNSGLPEKFGCREQTLLNFILQCRRRYRRVPYHNFYHVVDVCQTLHTYLYTGKASELLTELECYVLLVTALVHDLDHMGVNNSFYLKTDSPLGILSSASGNNSVLEVHHCSLAIEILSDPAADVFEGLSGQDVAYAYRALIDCVLATDMARHGDLSRVFDDMAKAGYDSNDQESRRLVMETLIKAGDVSNVTKPFETSRMWAMAVTEEFYRQGDMEKEKGVEVLPMFDRSKNNELARGQIGFIDFVAGKFFRDIVGNLFHGMQWCVDTVNSNRAKWQEILDGRRDSIRPSIV | soluble
7 | SCIIFLKFDPRPASKNAYRLILAANRDEVYSRPSKAAEFWGSSSEILSGLDMEEGKEGGSWLGISKRGKLAALTNYLEARQNPDAQGRGFLVSNYLTDNLDSLAYLRKVSSEAHLYNGFNLLTAEFRANEDTLCYYGNKGSSEPIHLKAGIYGLSNSLLETPWRKLQHGKQLFSSVVSKTLPPDGLVQELLHILNNEELNTPDPAQESQGVGYSNAMLRALSAVCVRSPGYGTRTNTVILIDREGNVSFTERTMQNCDITQWSTNSFHFRLQE | soluble
8 | MGSDKIHHHHHHMEKAERLTGTPDYAVLPGRILDKTLAGRGLQKAEFAERCGHSAKMISEIIAGKAPIMPETALEFERVLGMPASYWLTLESLYRLRLAEQRDRQRLSDQRDWAKRFPIAAMVRLGWIDKPSDRVDEVAKLLAFFGVASVEAWQAMTASAAEQIAYRRSPSFQSAPESVSAWLRRGEMVAGARPCGPFDEAGFRRVLKSVRELTREAPEVFQPSLIERCACVGVAVVFTPELPKTCLSGATRWLSKDKALIQLSLRHKTDDHLWFTFFHEAGHVLLHPKKLILEEKLKKGEAPTPESAQREREANVFAATTLIPRSAWMAFTAAGDFSAPRIRAFAKEHSLSPGIIVGQLQHDSHLSYATTLNSLKTTFRWPAESAVSHPSV | not soluble
9 | MPEFTNNPVAECDTVFSEKDGKKIVDFIIYPAKNGDQWVGTAVEAKSMGFGGELKVLVGFDAEGKIYNYSLLSHAETPGLGSKAADWFKEGNKGSIKGMNPGEQPLTVSKDGGQVDAITASTITSRAFLNAVNAAYGAYKGDGGANGTTGASQKAVQKSETAIVDSVVIKLEHHHHHH | soluble
10 | MGSDKIHHHHHHMMNNIGLILFDIDGVIRDVTNSYRLAIQETVNFFSGWRPSIEDIDSIKSEGCWNNDWDLSLEMINRHVQKNNLSFSAPSRKILIECFENFYFGGDPNHDSSEWSGFIKDETLLVKKTFFEELTQRRIGWGFVSGAELPSAKFVLEQRLGLASAPLIAMGEAPEKPDPTGFISLSSKLSKKPLGFSNPPIAYIGDTVADVKTVINARIKIPDQKFISLAIAPPHLHVDSSREKRLRYEAELKKAGADLIIKSMDNLKNETLNLFINQ | not soluble
11 | MMKQNPILITGGTGTVGSRIASRLIKLGYRVRIASRKKGALADAEYVYFNWKYASSFTPALEQVKQIYLVAPVGVFDPAPYVLPFLKEAKRLGAKRVVMQSASVVSENGPVFGALHQAVREFPEWTVLRPSYFMQNFINVQHRMSIQTEGRITTASGEGKLGFIDADDIAETAVRALIDDVPHQTHHILTGPEALSYAEAAEIIGAAAGRRVEHVSISRSELQHKMEAGGLPADYAHFMAKLDEAISHGAEHRVTDTVKRVTGKEPRSLSEFAAAHAAYWTSFWTELEHHHHHH | not soluble
12 | MAEVRARVDFKVGAKSNIDAEILSFRGLKTDKEHVAVIFKQADQTQDTPLVRMHSECLTGDVFHSSRCDCGEQLEETIQRMGESGGVILYLRQEGRGIGLYNKIDAYRLQSQGMNTYEANNHLGFDDDLRDFTEAAQMLEALGIKKIRLVTNNPKKIRELAEYGIEIVEVVNTSAHIKDGNENYLRAKVSHGKHNLKVLEHHHHHH | soluble
13 | MSASFSAPRLRPRQLSAGDLVEESLLDPANDYLRIVRARQPGMDLRQWIAAAGAGLRDSLLRHGGILFRGFAVDGAEGFSQAVQSFSPNMLDYLERAAARQEVAHRVFTSTEFSPDGWIPPHHEMSYSHNWPSYIHFYCQTPPATQGRTPLADERRVSARIPEAIRQRFLRHGVCYVRNYGPEIDLTWQEGFQTDSRAEVEAYCRQTGTQWTWLDDQRLNTRQVRQAMVRHPLSGETLWFNHAHMFHVSNMPPALARALLDEVGEQGLPRNAYYGDGSPIEAEVLDTIRAAYREETRAFAWERGDVLMLDNFISVHGREPYTGERKVLVAMTDLHVHQP | not soluble
14 | MHDTMHKIFGATPPIFSYTPILTMNLCIAKATPNVCHSTGNLCKAEMDNVTSWVYDKTQGLFITGE | not soluble
15 | MIDILLCDVIITIGDVEIKAHKTILAAGSTYFKTMFTTPMIARDLATRVNLQMFDKMSSKILYSTYTIGI | not soluble
16 | ISTEEAAPDGPPMDVTLQPVTSQSIQVTWKAPKKELQNGVIRGYQIGYRENSPGSNGQYSIVEMKATGDSEVYTLDNLKKFAQYGVVVQAFNRAGTGPSSSEINATTLE | soluble
17 | MGSDKIHHHHHHMILMRISIKGLGISGLYLYERLKQSGFDVTAFDVRRRDFYIPCAYATNFNLMKPFMSRIGIDFDNYVLFRSETITMSGENGSEIEFPSAGLVTFDRNGLQRDMMNRIEMETETKADLVVDATGISRSYLGRINGDLTYYTKEYLTDHVIHRDFYFLFLNRGVGYLWEFPLDRGHFHVGIGSIRRDDLNRIDRYNRIRITGRRIRMKPLFEVASIGNIVGIGESVGTVSPLTGEGILPSIESAELLYQAISDKSDPNEAIRLYLKKLNTSFSHYYKLSDFVRKVQTGKLLRPSNIRYASLITKDMKHFGIDFSLGKAVRALIQ | not soluble
18 | MGGEGPGSDDIVKKMAQLMMQGAVMLDKTCPADGLPLFKLKTGDVVCPVHGKVVIVASDEEARDVEVEEIIREVRYRAARNVMKGLEEDNVDTVSKWLGVLETAERILAIRRGSRQGQGSVRGEGRESK | not soluble
19 | MIAWYGMALDQAVVNRPVKAKLYSKIVDSVECTACSRYCRLKPGKTGFCGVRKNIDGDLYLLVYGLPAAINVDPIEKKPVLHMYPGARIFSLSTVGCSFACQYCQNYDISQRRTITGYHYDPEEIVEEALSMGCQGIAYTYNEPSIFMEYAHDIGVIARRHGLINIFVTNGFETPEAIDYARDFLDAATVDFKGNASDEFYRKYISVPSARPIFETLANLKSAGIHVEVTDLVVPEVGDRLEDARTMLERIMDILGEYVPISFLRFHPDYRMMDLPDTPVETLRKHHDLAVSMGFKYVYIGNVPGYGENTYCPNCGNLLIERFVFSSKVIGLDRNGRCKKCGYDPQIPLMKEKRADYIS | not soluble
20 | MRDSLNNGVSLQQAQETYFAKFNHYSYMAHFVAKILGQRPSHVLSGWGVSELIVAYGHYANEQSYQNFMDWKSSQENAPKPKQPQPFVVQFISQDELEEVE | not soluble
21 | GPGSMERTPTARIRDVIDSQLALRSSGFLPGNSTPDQLLHLRAAVHRNAPQHRTAAYFVDHANAFGTVGPDAVILEMRRLSIPNRIARWSAACLNSTSAVVCIDKLTPSSRTLTRGAPQGTVLAPIMFVVVMQSRCSCPSNVPYFAEGSSLMTALSPHSRATGMRSTRPQKKA | not soluble
22 | MIRHRFSAEDFHRMAEAGILGEDDRVELIRGEVVELSPVGKRHMAALKRLMNALFPLQQAKKALLQVQDPLRLFPDTEPQPDLALLAYRDDFYRERVPEAKDALLVVEVAETSLDHDLQVKLPLYAQAGIPEVWVVDLVREKVHVFRKPQGEGYGEAQALEDGELSVLGLKVPVKEVLP | soluble
23 | MFNYERPKHFIQSQNPCGSRLQPPGPETSSFSSQTKQSSIIIQPRQCTEQRFSASSTLSSHITMSSSAFPASPQQHAGSNPGQRVTTTYNQSPASFLSSILPSQPDYNSSKIPSAMDSNYQQSSAGQPINAKPSQTANAKPIPRTPDHEIQGSKEALIQDLERKLKCKDTLLHNGNQRLTYEEKMARRLLGPQNAAAVFQAQDDSGAQDSQQHNSEHARLQVPTSQVRSRSTSRGDVNDQDAIQEKFYPPRFIQVPENMSIDEGRFCRMDFKVSGLPAPDVSWYLNGRTVQSDDLHKMIVSEKGLHSLIFEVVRASDAGAYACVAKNRAGEATFTVQLDVLAKEHKRAPMFIYKPQSKKVLEGDSVKLECQISAIPPPKLFWKRNNEMVQFNTDRISLYQDNTGRVTLLIKDVNKKDAGWYTVSAVNEAGVTTCNTRLDVTARPNQTLPAPKQLRVRPTFSKYLALNGKGLNVKQAFNPEGEFQRLAAQSGLYESEEL | soluble
